Drawing on article PMC9038691, “A structural exposé of noncanonical molecular reactivity within the protein tyrosine phosphatase WPD loop” (Nature communications, 2022), this text covers Km for one protein.

Holding throughout (assay): malachite green Pi release
Common to all, as to format: biochemical, Arabidopsis thaliana
Holding throughout (details): pH 7.2, 30 °C, 100 mM KCl, 0.8 mM MgCl2

Substrate in data set [1]: O=P(O)(O)O[C@@H]1[C@@H](OP(=O)(O)O)[C@H](OP(=O)(O)OP(=O)(O)O)[C@@H](OP(=O)(O)O)[C@H](OP(=O)(O)OP(=O)(O)O)[C@@H]1OP(=O)(O)O
Substrate in data set [2]: O=P(O)(O)O[C@@H]1[C@@H](OP(=O)(O)OP(=O)(O)O)[C@H](OP(=O)(O)O)[C@@H](OP(=O)(O)O)[C@@H](O)[C@H]1OP(=O)(O)O
Substrate in data set [3]: O=P(O)(O)O[C@H]1[C@@H](OP(=O)(O)O)[C@H](OP(=O)(O)O)[C@@H](OP(=O)(O)OP(=O)(O)O)[C@H](OP(=O)(O)O)[C@H]1OP(=O)(O)O

B1: AtPFA-DSP1 (full-length) (Arabidopsis thaliana) (protein)
chain: MKLVEKTTTTEQDNGEDFCRTIIEVSEVNRNVFQAPGGEADPFRVVSGEELHLIPPLNFSMVDNGIFRSGFPDSANFSFLQTLGLRSIIYLCPEPYPESNLQFLKSNGIRLFQFGIEGNKEPFVNIPDHKIRMALKVLLDEKNHPVLIHCKRGKHRTGCLVGCLRKLQKWCLTSIFDEYQRFAAAKARVSDQRFMEIFDVSSFSHIPMSFSCSIR
notes: full-length (codon-optimized cDNA, Genscript); pDest-566, N-terminal 6xHis-MBP tag cut with TEV protease; E. coli
As to B1, the Km in data set [1] was 44 µM; in data set [2], 78 µM; in data set [3], 60 µM.

As usually defined, the Km is the substrate concentration at which the rate is half of its maximum.
